Target: RecA (RecAEc) (Escherichia coli, UniProt P0A7G6 2-353)
Experiment: fluorescence anisotropy

Sequence of RecA (RecAEc) (P0A7G6 2-353): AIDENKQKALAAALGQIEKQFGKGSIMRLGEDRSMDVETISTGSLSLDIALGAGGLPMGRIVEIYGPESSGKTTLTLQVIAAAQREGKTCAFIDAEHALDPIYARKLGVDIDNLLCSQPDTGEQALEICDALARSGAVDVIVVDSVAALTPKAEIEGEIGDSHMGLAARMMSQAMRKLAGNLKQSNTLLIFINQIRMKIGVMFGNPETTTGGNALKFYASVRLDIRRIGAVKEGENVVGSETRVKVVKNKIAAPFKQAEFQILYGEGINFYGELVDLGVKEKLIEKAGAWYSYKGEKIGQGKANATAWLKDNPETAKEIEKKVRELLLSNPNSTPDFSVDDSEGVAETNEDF

## GGGTGGGTTGGGTGGG (structured_DNA) [dimeric pilE G4 (NG16 core)]
  binding result: no binding

## TTTTTTTTTTTTTTTT (ssDNA) [oligo dT16]
  Kd: 640 ± 260 nM

From PMC3845372
